Measured values reported in patent publication US20120058906A1 (published 2012).
Positions count from the first letter of the chain named. Values belong to the binder of their own block, whether it stands above or below them.

Assays:
[1] = target: T1, rHuman Erythropoietin R/Fc Chimera, CF (R&D Systems Cat#963-ER) (human, UniProt P19235 25-250); assay: MSD ECL multi-spot plate, antigen immobilized; Fab 200 nM; blank spot 588
T1 construct: Purchased Fc chimera; also called EPO R/Fc; Epo R; not shown: Fc portion of the purchased chimera
T1 sequence: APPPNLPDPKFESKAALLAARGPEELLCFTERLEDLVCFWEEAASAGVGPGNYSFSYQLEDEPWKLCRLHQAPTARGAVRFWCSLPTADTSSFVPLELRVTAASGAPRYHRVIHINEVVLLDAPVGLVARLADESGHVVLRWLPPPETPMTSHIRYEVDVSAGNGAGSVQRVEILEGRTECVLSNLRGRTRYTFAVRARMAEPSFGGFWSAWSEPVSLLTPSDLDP

[2] = target: T2, rHuman HGF R/c-MET/Fc Chimera, CF (R&D Systems Cat#358-MT/CF) (human, UniProt P08581 25-932); assay: as above
T2 construct: Purchased Fc chimera; also called HGF R/Fc; not shown: Fc portion of the purchased chimera

[3] = target: T3, Recombinant Human DLL4 (R&D Systems Cat#1506-D4/CF) (human, UniProt Q9NR61 27-524); assay: as above
T3 construct: Purchased recombinant protein; also called delta-like protein 4

[4] = target: T4, rHuman IGF-1 sR (IGF-1 sR), CF (R&D Systems Cat#391-GR) (human, UniProt P08069 31-932); assay: as above
T4 construct: Purchased soluble receptor; also called insulin-like growth factor-1 soluble receptor; IGF-R1

[5] = target: T5, rHuman CD44/Fc Chimera, CF (R&D Systems Cat#3660-CD) (human, UniProt P16070 21-220); assay: ECL (MSD Multi-Spot) binding assay, antigen spotted on plate; Fab 6 nM; blank spot 191
T5 construct: Bought Fc chimera; Fc part of the bought chimera not given

[6] = target: T6, Recombinant Human DLL4 (R&D Systems Cat#1506-D4/CF) (human, UniProt Q9NR61 27-524); assay: as above
T6 construct: Bought recombinant protein; also called delta-like protein 4; rHuman DLL4

[7] = target: T7, rHuman IGF-1 sR (IGF-1 sR), CF (R&D Systems Cat#391-GR) (human, UniProt P08069 31-932); assay: as above
T7 construct: Bought soluble receptor; also called insulin-like growth factor-1 soluble receptor; IGF-R1

[8] = target: T8, rHuman ErbB2/Fc Chimera, CF (R&D Systems Cat#1129-ER) (human, UniProt P04626 23-652); assay: as above
T8 construct: Bought Fc chimera; also called HER2/neu; human epidermal growth factor 2 receptor; Fc part of the bought chimera not given

[9] = target: T9, rHuman Notch-1/Fc Chimera, CF (R&D Systems Cat#3647-TK) (human, UniProt P46531 19-526); assay: as above
T9 construct: Bought Fc chimera; Fc part of the bought chimera not given

[10] = target: T10, rHuman Erythropoietin R/Fc Chimera, CF (R&D Systems Cat#963-ER) (human, UniProt P19235 25-250); assay: as above
T10 construct: Bought Fc chimera; also called EPO R/Fc; Epo R; Fc part of the bought chimera not given
T10 sequence: T1 sequence

[11] = target: T11, rHuman EGF R/Fc Chimera, CF (R&D Systems Cat#344-ER) (human, UniProt P00533 25-645); assay: as above
T11 construct: Bought Fc chimera; also called epidermal growth factor receptor; Fc part of the bought chimera not given

[12] = target: T5, rHuman CD44/Fc Chimera, CF (R&D Systems …); assay: ECL (MSD Multi-Spot) binding assay, antigen spotted on plate; Fab 51 nM; blank spot 335
[13] = target: T6, Recombinant Human DLL4 (R&D Systems …); assay: as above
[14] = target: T7, rHuman IGF-1 sR (IGF-1 sR), CF (R&D …); assay: as above
[15] = target: T8, rHuman ErbB2/Fc Chimera, CF (R&D …); assay: as above
[16] = target: T9, rHuman Notch-1/Fc Chimera, CF (R&D …); assay: as above
[17] = target: T10, rHuman Erythropoietin R/Fc Chimera, CF …; assay: as above
[18] = target: T11, rHuman EGF R/Fc Chimera, CF (R&D …); assay: as above
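Note: blank spot per well as comparator with Hit at signal to blank ratio of 4 or more.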

ECL signal [1]: 1230 ECL signal | ECL signal [2]: 1430 ECL signal | ECL signal [3]: 45400 ECL signal | ECL signal [4]: 1320 ECL signal
B1: Fab VH5-51_IGHD5-18*01>3_IGHJ4*01_G100K & V3-4_IGLJ1*01 (Fab, V domains shown)
VH: EVQLVQSGAEVKKPGESLKISCKGSGYSFTSYWIGWVRQMPGKGLEWMGIIYPGDSDTRYSPSFQGQVTISADKSISTAYLQWSSLKASDTAMYYCARRKYSYGYDYFDYWGQGTLVTVSS
VL: QTVVTQEPSFSVSPGGTVTLTCGLSSGSVSTSYYPSWYQQTPGQAPRTLIYSTNTRSSGVPDRFSGSILGNKAALTITGAQADDESDYYCVLYMGSGISYVFGTGTKVTVL
notes: It was expressed as a Fab: CH1 with tags from Plasmid A and lambda CL from Plasmid E; also called Fab No. 22

ECL signal [5]: 547 | ECL signal [6]: 1950 | ECL signal [7]: 854 | ECL signal [8]: 873 | ECL signal [9]: 464 | ECL signal [10]: 548 | ECL signal [11]: 742 | ECL signal [12]: 651 | ECL signal [13]: 17000 | ECL signal [14]: 1050 | ECL signal [15]: 1250 | ECL signal [16]: 685 | ECL signal [17]: 750 | ECL signal [18]: 816
B2: Fab VH5-51_IGHD5-18*01>3_IGHJ4*01 & V3-4_IGLJ1*01 (Fab, V domains shown)
VH: B1 VH with K100G
VL: B1 VL
notes: Tested as a Fab made in E. coli; also called IGHV5-51*03
